Test results reported in article PMC9674263 (Proceedings of the National Academy of Sciences of the …, 2022).

Target: the molecule itself
Experiment: native gel or EMSA

B1: endogenous PLOD2 of HCC38 cells (enzyme, human (endogenous in HCC38), UniProt O00469 26-737, looked up)
chain: ADSEKPSSIPTDKLLVITVATKESDGFHRFMQSAKYFNYTVKVLGQGEEWRGGDGINSIGGGQKVRLMKEVMEHYADQDDLVVMFTECFDVIFAGGPEEVLKKFQKANHKVVFAADGILWPDKRLADKYPVVHIGKRYLNSGGFIGYAPYVNRIVQQWNLQDNDDDQLFYTKVYIDPLKREAINITLDHKCKIFQTLNGAVDEVVLKFENGKARAKNTFYETLPVAINGNGPTKILLNYFGNYVPNSWTQDNGCTLCEFDTVDLSAVDVHPNVSIGVFIEQPTPFLPRFLDILLTLDYPKEALKLFIHNKEVYHEKDIKVFFDKAKHEIKTIKIVGPEENLSQAEARNMGMDFCRQDEKCDYYFSVDADVVLTNPRTLKILIEQNRKIIAPLVTRHGKLWSNFWGALSPDGYYARSEDYVDIVQGNRVGVWNVPYMANVYLIKGKTLRSEMNERNYFVRDKLDPDMALCRNAREMGVFMYISNRHEFGRLLSTANYNTSHYNNDLWQIFENPVDWKEKYINRDYSKIFTENIVEQPCPDVFWFPIFSEKACDELVEEMEHYGKWSGGKHHDSRISGGYENVPTDDIHMKQVDLENVWLHFIREFIAPVTLKVFAGYYTKGFALLNFVVKYSPERQRSLRPHHDASTFTINIALNNVGEDFQGGGCKFLRYNCSIESPRKGWSFMHPGRLTHLHEGLPVKNGTRYIAVSFIDP
For B1, the “stoichiometry N” value was 2.
